# Reference: patent US20030152959
# Target: T1, GST-ERRα1 (Homo sapiens) (UniProt P11474)
# T1 sequence: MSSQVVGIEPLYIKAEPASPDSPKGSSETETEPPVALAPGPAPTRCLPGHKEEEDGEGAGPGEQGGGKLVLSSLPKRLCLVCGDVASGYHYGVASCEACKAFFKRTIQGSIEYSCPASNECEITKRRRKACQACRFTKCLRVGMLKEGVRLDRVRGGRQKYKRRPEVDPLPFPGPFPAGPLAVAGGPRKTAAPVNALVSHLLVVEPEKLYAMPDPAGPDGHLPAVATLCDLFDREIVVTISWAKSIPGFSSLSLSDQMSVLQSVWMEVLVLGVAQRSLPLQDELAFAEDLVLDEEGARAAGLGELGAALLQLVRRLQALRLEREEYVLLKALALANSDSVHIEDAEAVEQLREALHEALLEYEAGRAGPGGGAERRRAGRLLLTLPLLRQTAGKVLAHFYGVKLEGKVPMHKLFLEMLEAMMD
# Details: cell-free transcription, HeLa nuclear extract, approximate
substance,measurement,value
SV40 genome / late promoter template,activity (fold repression),3
